{
  "source": "paper PMC4895385",
  "about": "“The ubiquitin E3 ligase TRAF6 exacerbates pathological cardiac hypertrophy via TAK1-dependent signalling” (Nature Communications, 2016)",
  "target": "T1, FLAG-tagged TAK1 (pcDNA5-FLAG-TAK1) (human, UniProt O43318-2 1-579)",
  "T1 construct": "TAK1 (MAP3K7), human, gene cloned into pcDNA5-FLAG-C1; the truncates end at residue 579, so the 579-residue isoform is meant; source: HEK293T, transfected, in lysate; immunopurified from HEK293T (eluted with FLAG peptide) for the GST pull-down",
  "T1 sequence (looked up)": "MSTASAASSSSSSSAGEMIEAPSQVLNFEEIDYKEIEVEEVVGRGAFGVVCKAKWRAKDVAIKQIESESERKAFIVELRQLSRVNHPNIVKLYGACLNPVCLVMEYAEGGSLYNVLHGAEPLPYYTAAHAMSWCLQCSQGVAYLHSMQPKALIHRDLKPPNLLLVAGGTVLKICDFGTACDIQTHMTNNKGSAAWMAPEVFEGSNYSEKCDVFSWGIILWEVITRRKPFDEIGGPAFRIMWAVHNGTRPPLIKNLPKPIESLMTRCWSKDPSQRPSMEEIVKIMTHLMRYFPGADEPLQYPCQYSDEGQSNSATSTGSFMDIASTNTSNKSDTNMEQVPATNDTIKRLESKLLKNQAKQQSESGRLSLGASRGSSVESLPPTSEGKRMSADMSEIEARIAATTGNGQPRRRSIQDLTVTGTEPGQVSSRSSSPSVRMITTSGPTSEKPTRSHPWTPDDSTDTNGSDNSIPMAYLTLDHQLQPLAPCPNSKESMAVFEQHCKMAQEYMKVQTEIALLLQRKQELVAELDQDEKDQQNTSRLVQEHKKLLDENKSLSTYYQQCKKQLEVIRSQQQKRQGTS",
  "experiment": "pull-down; GST-TRAF6 retained on glutathione-Sepharose 4B beads, incubated 4 h at 4 °C with immunopurified Flag-TAK1 from HEK293T cells; eluted with 20 mM reduced glutathione; blot with anti-FLAG",
  "conditions": "both partners purified",
  "data": [
    {"binder": "GST-tagged TRAF6 (pGEX-4T-1-GST-TRAF6) (natural protein, human, UniProt Q9Y4K3 1-522, looked up, TRAF6, human, gene cloned into pGEX-4T-1; pGEX-4T-1 normally places GST at the N-terminus (surmised); source: E. coli Rosetta (DE3), retained on glutathione-Sepharose 4B beads and washed) MSLLNCENSCGSSQSESDCCVAMASSCSAVTKDDSVGGTASTGNLSSSFMEEIQGYDVEFDPPLESKYECPICLMALREAVQTPCGHRFCKACIIKSIRDAGHKCPVDNEILLENQLFPDNFAKREILSLMVKCPNEGCLHKMELRHLEDHQAHCEFALMDCPQCQRPFQKFHINIHILKDCPRRQVSCDNCAASMAFEDKEIHDQNCPLANVICEYCNTILIREQMPNHYDLDCPTAPIPCTFSTFGCHEKMQRNHLARHLQENTQSHMRMLAQAVHSLSVIPDSGYISEVRNFQETIHQLEGRLVRQDHQIRELTAKMETQSMYVSELKRTIRTLEDKVAEIEAQQCNGIYIWKIGNFGMHLKCQEEEKPVVIHSPGFYTGKPGYKLCMRLHLQLPTAQRCANYISLFVHTMQGEYDSHLPWPFQGTIRLTILDQSEAPVRQNHEEIMDAKPELLAFQRPTIPRNPKGFGYVTFMHLEALRQRTFIKDDTLLVRCEVSTRFDMGSLRREGFQPRSTDAGV", "values": [
      {"measurement": "binding result", "value": "binds"}
    ]}
  ]
}
